Measured values: publication PMC6879610

Key:
[1] = target: Env Du156.12 (HIV-1 (Du156.12))
[2] = target: Env HxB2 (HIV-1 (HxB2)) (UniProt P04578)

## PGZL1 F100A IgG (antibody)
[1]
  neutralisation of Du156.12 (TZM-bl), fold decrease against PGZL1: > 10 fold
[2]
  neutralisation of HxB2 (TZM-bl), fold decrease against PGZL1: > 10 fold

## PGZL1 W99A IgG (antibody)
[1]
  neutralisation of Du156.12 (TZM-bl), fold decrease against PGZL1: > 10 fold
[2]
  neutralisation of HxB2 (TZM-bl), fold decrease against PGZL1: > 10 fold
